Source: article PMC6856059 (Nature, 2019)

Molecular target: the molecule itself
Experiment: cryo-EM structure

B1: N-terminally truncated zebrafish NKCC1 (domain or fragment)
chain: KFGWIKGVLVRCMLNIWGVMLFIRMTWIVGQAGIAYSCIIVIMATVVTTITGCSTSAIATNGFVRGGGAYYLISRSLGPEFGGSIGLIFAFANAVAVAMYVVGFAETVVELLMDSGLLMIDQTNDIRVIGTITVILLLGISVAGMEWEAKAQIFLLVILITAIFNYFIGSFIAVDSKKKFGFFSYDAGILAENFGPDFRGQTFFSVFSIFFPAATGILAGANISGDLADPQMAIPKGTLLAILITGLVYVGVAISAGACIVRDATGIESNFTLISNCTDAACKYGYDFSSCRPTVEGEVSSCKFGLHNDFQVMSVVSGFSPLISAGIFSATLSSALASLVSAPKVFQALCKDNIYPGIAIFGKGYGKNNEPLRGYFLTFGIALAFILIAELNVIAPIISNFFLASYALINFSVFHASLANSPGWRPSFKYYNMWASLAGAILCCVVMFIINWWAALLTNVIVLSLYIYVSYKKPDVNWGSSTQALTYHQALTHSLQLCGVADHIKTFRPQCLVMTGAPNSRPAILHLVHAFTKNVGLMLCGHVRISSRRPNFKELNSDMLRYQRWLLNNNSKAFYTCVVAEDLRQGTQYMLQAAGLGRLRPNTLVIGFKNDWRTGDIKEVETYINLIHDAFDFQYGVVILRLREGLDISHIQGQDDSSGMKDVVVSVDISKDSDGDSSKPSSKATSVQNSPAVQKDEDDDGKAHTQPLLKKDKKSPTVPLNVADQRLLDASQQFQQKQGKGTVDVWWLFDDGGLTLLIPYLIANKKKWKDCKIRVFIGGKINRIDHDRRAMATLLSKFRIDFSDITVLGDINTKPKSEGLTEFAEMIEPYKLREDDMEQEAAEKLKSEEPWRITDNELELYKAKGNRQIRLNELLKEHSSTANLIVMSMPLARKGAVSSALYMAWLDTLSKDLPPILLVRGNHQSVLTFYS
Q: Which “stoichiometry N” value does the source give for B1 here?
A: 2
